From article PMC4414194

Tests used:
HDAC3 = HDAC3 (UniProt O15379); assay: anti-GFP co-IP, anti-Flag blot; details: reference: GATA1 wild type; sites S161,S187
HDAC4 = HDAC4 (UniProt P56524); assay: anti-GFP co-IP, anti-Flag blot; details: reference: GATA1 wild type; sites S161,S187

## GATA1 (from UniProt P15976) GATA1 S161A S187A
HDAC3
  binding against the reference: weaker
HDAC4
  binding against the reference: weaker
